Measurements: patent US20210324076A1 (AMPHIVENA THERAPEUTICS, published 2021)
Values joined by “and” are separate entries in the source; they are usually repeats but may differ in a detail not shown here. Equal entries are not always repeated.

Key:
human CD3 [1] = target: T1, human CD3 (human, UniProt P07766 23-207; P09693 23-182; P04234 22-171; P20963 22-164); experiment: flow cytometry titration on human CD3+ T cells/Jurkat, anti-His detection
T1 construct: whole, on cells; also called hu CD3; CD3 on human T cells
T1 sequence (P07766 23-207, chain 1 of 4): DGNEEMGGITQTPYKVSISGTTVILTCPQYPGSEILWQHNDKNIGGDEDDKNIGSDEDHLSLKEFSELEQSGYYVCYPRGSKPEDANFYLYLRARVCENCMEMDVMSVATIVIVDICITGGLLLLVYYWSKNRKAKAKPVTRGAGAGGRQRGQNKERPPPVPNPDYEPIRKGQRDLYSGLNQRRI
T1 sequence (P09693 23-182, chain 2 of 4): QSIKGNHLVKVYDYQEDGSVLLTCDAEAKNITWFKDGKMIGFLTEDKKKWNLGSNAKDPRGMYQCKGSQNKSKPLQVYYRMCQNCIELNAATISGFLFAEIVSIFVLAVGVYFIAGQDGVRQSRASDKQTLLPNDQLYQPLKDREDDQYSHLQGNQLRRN
T1 sequence (P04234 22-171, chain 3 of 4): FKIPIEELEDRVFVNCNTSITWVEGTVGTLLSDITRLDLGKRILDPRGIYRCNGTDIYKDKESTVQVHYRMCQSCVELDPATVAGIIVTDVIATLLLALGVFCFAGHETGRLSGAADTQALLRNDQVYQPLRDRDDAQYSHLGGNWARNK
T1 sequence (P20963 22-164, chain 4 of 4): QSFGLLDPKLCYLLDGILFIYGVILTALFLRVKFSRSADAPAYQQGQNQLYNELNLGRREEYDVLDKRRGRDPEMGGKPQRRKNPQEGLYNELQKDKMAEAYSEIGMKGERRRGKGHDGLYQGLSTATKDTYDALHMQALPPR
Experimental: Cells were incubated with 100 μL of serial dilutions of CD33/CD3 2×2 T-cell engagers. After washing three times with FACS buffer the cells were incubated with 0.1 mL of […] mouse monoclonal anti-His antibody in the same buffer for 45 min on ice. After a second washing cycle, the cells were incubated with 0.1 mL of […] FITC-conjugated goat anti-mouse IgG antibodies under the same conditions as before. As a control, cells were incubated with the anti-His IgG followed by the FITC-conjugated goat anti-mouse IgG antibodies without anti-CD33 2×2 T-cell engagers. […] The fluorescence of 1×10⁴ living cells was measured using a Beckman-Coulter FC500 MPL flow cytometer using the MXP software (Beckman-Coulter, Krefeld, Germany) or a Millipore Guava EasyCyte flow cytometer using the Incyte software (Merck Millipore, Schwalbach, Germany). Mean fluorescence intensities of the cell samples were calculated using CXP software (Beckman-Coulter, Krefeld, Germany) or Incyte software (Merck Millipore, Schwalbach, Germany). After subtracting the fluorescence intensity values of the cells stained with the secondary and tertiary reagents alone the values were used for calculation of the KD values with the equation for one-site binding (hyperbola) of the GraphPad Prism (version 6.00 for Windows, GraphPad Software, La Jolla Calif. USA). […]

human CD33 [2] = target: T2, human CD33 (human, UniProt P20138 18-364); experiment: cell-based or functional assay
T2 sequence (P20138 18-364): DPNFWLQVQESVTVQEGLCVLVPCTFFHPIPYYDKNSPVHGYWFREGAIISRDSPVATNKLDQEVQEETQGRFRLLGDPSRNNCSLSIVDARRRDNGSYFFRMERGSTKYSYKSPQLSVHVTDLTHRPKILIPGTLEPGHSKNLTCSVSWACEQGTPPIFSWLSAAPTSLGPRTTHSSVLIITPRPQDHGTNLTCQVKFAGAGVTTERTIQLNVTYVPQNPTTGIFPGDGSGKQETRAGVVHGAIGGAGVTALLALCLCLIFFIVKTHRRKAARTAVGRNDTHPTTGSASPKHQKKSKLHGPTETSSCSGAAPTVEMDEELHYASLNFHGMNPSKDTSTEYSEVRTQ

human CD33 [3] = target: T2, human CD33; experiment: cell-based or functional assay; remark: listed apart in the source
human CD3 [4] = target: T1, human CD3; experiment: cell-based or functional assay
human CD33 [5] = target: T2, human CD33; experiment: cell-based or functional assay; remark: listed apart in the source
human CD33 [6] = target: T2, human CD33; experiment: cell-based or functional assay; remark: listed apart in the source

Row | Binder | Kd (human CD3 [1]) [pM] | IC50 lysis of KG-1 cells with human T cells, E:T 5:1, 24 h (human CD33 [2]) [pM] | CD25 Induction EC50 (PBMC, 24 h) (human CD3 [4]) [pM] | CD69 Induction EC50 (PBMC, 24 h) (human CD3 [4]) [pM] | IC50 lysis of KG-1 cells (separate experiment) (human CD33 [2]) [pM] | EC50 calcein-release lysis of HL-60, E:T 25:1, 30 min (human CD33 [6]) [pM] | EC50 calcein-release lysis of HL-60, E:T 25:1, 60 min (human CD33 [6]) [pM] | EC50 calcein-release lysis of HL-60, E:T 25:1, 120 min (human CD33 [6]) [pM] | EC50 calcein-release lysis of HL-60, E:T 25:1, 180 min (human CD33 [6]) [pM] | EC50 calcein-release lysis of HL-60, E:T 25:1, 240 min (human CD33 [6]) [pM] | EC50 calcein-release lysis of HL-60, E:T 25:1, 300 min (human CD33 [6]) [pM] | EC50 cytotoxicity on HL-60, E:T 5:1, 20-24 h (human CD33 [3]) | EC50 cytotoxicity on KG-1, E:T 5:1, 20-24 h (human CD33 [3]) | EC50 cytotoxicity on U-937, E:T 5:1, 20-24 h (human CD33 [3]) | EC50 cytotoxicity, mean of HL-60, U-937, KG-1 (human CD33 [3]) | EC50 on HL-60 (cytotoxicity) (human CD33 [5]) [pM]
1 | CD33/CD3 2×2 T-cell engager 12 (bispecific antibody) DIQMTQSPSSLSASVGDRVTITCRSSTGAVTTSNYANWVQQKPGKAPKALIGGTNKRAPGVPSRFSGSLIGDKATLTISSLQPEDFATYYCALWYSNLWVFGQGTKVEIKGGSGGSQVQLVQSGAEVKKPGASVKVSCKASGYTFTSYDINWVRQAPGQGLEWMGWMNPNSGNTGFAQKFQGRVTMTRDTSTSTVYMELSSLRSEDTAVYYCARDRAVTDYYYGMDVWGQGTLVTVSSGGSGQSVLTQPPSASGTPGQRVTISCSGSRSNIGSNTVNWYQQLPGTAPKLLIYGNNQRPSGVPDRFSGSKSGTSASLAISGLQSEDEADYYCATWDDSLIGWVFGGGTKLTVLGGSGGSEVQLVESGGGLVQPGGSLRLSCAASGFTFSTYAMNWVRQAPGKGLEWVGRIRSKYNNYATYYADSVKDRFTISRDDSKNSLYLQMNSLKTEDTAVYYCARHGNFGNSYVSYFAYWGQGTLVTVSSAAAGSHHHHHH |  | ~0.01 | 6 | 3 |  |  |  |  |  |  |  | 1.3 pM and 137 pg/mL | 1.2 pM and 126 pg/mL | 0.8 pM and 84 pg/mL | 1.1 pM and 116 pg/mL | 
2 | CD33/CD3 2×2 T-cell engager 14 (bispecific antibody) DIQMTQSPSSLSASVGDRVTITCRSSTGAVTTSNYANWVQQKPGKAPKALIGGTNKRAPGVPSRFSGSLIGDKATLTISSLQPEDFATYYCALWYSNLWVFGQGTKVEIKGGSGGSQVQLVQSGAEVKKPGASVKVSCKASGYTFTSYDINWVRQAPGQGLEWMGWMNPNSGNTGFAQKFQGRVTMTRDTSTSTVYMELSSLRSEDTAVYYCARDRANTDFSYGMDVWGQGTLVTVSSGGSGQSVLTQPPSASGTPGQRVTISCSGSRSNIGSNTVNWYQQLPGTAPKLLIYGNNQRPSGVPDRFSGSKSGTSASLAISGLQSEDEADYYCATWDDSLIGWVFGGGTKLTVLGGSGGSEVQLVESGGGLVQPGGSLRLSCAASGFTFSTYAMNWVRQAPGKGLEWVGRIRSKYNNYATYYADSVKDRFTISRDDSKNSLYLQMNSLKTEDTAVYYCARHGNFGNSYVSYFAYWGQGTLVTVSSAAAGSHHHHHH |  |  | 10 | 7 |  |  |  |  |  |  |  | 1.6 pM and 168 pg/mL | 2.6 pM and 273 pg/mL | 3.6 pM and 378 pg/mL | 2.6 pM and 273 pg/mL | 11.6

The next lines start with results.

Row | Kd (human CD3 [1]) [pM] | IC50 lysis of KG-1 cells with human T cells, E:T 5:1, 24 h (human CD33 [2]) [pM] | CD25 Induction EC50 (PBMC, 24 h) (human CD3 [4]) [pM] | CD69 Induction EC50 (PBMC, 24 h) (human CD3 [4]) [pM] | IC50 lysis of KG-1 cells (separate experiment) (human CD33 [2]) [pM] | EC50 calcein-release lysis of HL-60, E:T 25:1, 30 min (human CD33 [6]) [pM] | EC50 calcein-release lysis of HL-60, E:T 25:1, 60 min (human CD33 [6]) [pM] | EC50 calcein-release lysis of HL-60, E:T 25:1, 120 min (human CD33 [6]) [pM] | EC50 calcein-release lysis of HL-60, E:T 25:1, 180 min (human CD33 [6]) [pM] | EC50 calcein-release lysis of HL-60, E:T 25:1, 240 min (human CD33 [6]) [pM] | EC50 calcein-release lysis of HL-60, E:T 25:1, 300 min (human CD33 [6]) [pM] | Binder | EC50 cytotoxicity on HL-60, E:T 5:1, 20-24 h (human CD33 [3]) | EC50 cytotoxicity on KG-1, E:T 5:1, 20-24 h (human CD33 [3]) | EC50 cytotoxicity on U-937, E:T 5:1, 20-24 h (human CD33 [3]) | EC50 cytotoxicity, mean of HL-60, U-937, KG-1 (human CD33 [3]) | EC50 on HL-60 (cytotoxicity) (human CD33 [5]) [pM]
3 | 11900 |  |  |  |  |  |  |  |  |  |  | CD33/CD3 2×2 T-cell engager 18 (bispecific antibody, Homodimer; His-tagged form) EVQLVESGGGLVQPGGSLRLSCAASGFTFSTYAMNWVRQAPGKGLEWVGRIRSKYNNYATYYADSVKDRFTISRDDSKNSLYLQMNSLKTEDTAVYYCARHGNFGNSYVSYFAYWGQGTLVTVSSGGSGGSQSVLTQPPSVSGAPGQRVTISCTGSSSNIGAGYDVHWYQQLPGTAPKLLIYGNSNRPSGVPDRFSGSKSGTSASLAITGLQAEDEADYYCQSYDSSLSDVVFGGGTKLTVLGGSGQVQLVQSGAEVKKPGESLKISCKGSGYSFTSYWIGWVRQMPGKGLEWMGIIYPGDSDTRYSPSFQGQVTISADKSISTAYLQWSSLKASDTAMYYCARHKRGSDAFDIWGQGTTVTVSSGGSGGSDIQMTQSPSSLSASVGDRVTITCRSSTGAVTTSNYANWVQQKPGKAPKALIGGTNKRAPGVPSRFSGSLIGDKATLTISSLQPEDFATYYCALWYSNLWVFGQGTKVEIKAAAGSHHHHHH |  |  |  |  | 
4 |  | ~0.5 | 1 | 2 | 5 | 4.8 | 2.5 | 1.6 | 1.6 | 1.5 | 1.6 | CD33/CD3 2×2 T-cell engager 16 (bispecific antibody) DIQMTQSPSSLSASVGDRVTITCRSSTGAVTTSNYANWVQQKPGKAPKALIGGTNKRAPGVPSRFSGSLIGDKATLTISSLQPEDFATYYCALWYSNLWVFGQGTKVEIKGGSGGSQVQLVQSGAEVKKPGASVKVSCKASGYTFTSYDINWVRQAPGQGLEWMGWMNPNSGNTGFAQKFQGRVTMTRDTSTSTVYMELSSLRSEDTAVYYCARDRANTDYSLGMDVWGQGTLVTVSSGGSGQSVLTQPPSASGTPGQRVTISCSGSRSNIGSNTVNWYQQLPGTAPKLLIYGNNQRPSGVPDRFSGSKSGTSASLAISGLQSEDEADYYCATWDDSLIGWVFGGGTKLTVLGGSGGSEVQLVESGGGLVQPGGSLRLSCAASGFTFSTYAMNWVRQAPGKGLEWVGRIRSKYNNYATYYADSVKDRFTISRDDSKNSLYLQMNSLKTEDTAVYYCARHGNFGNSYVSYFAYWGQGTLVTVSSAAAGSHHHHHH | 1.5 pM and 158 pg/mL | 1.8 pM and 189 pg/mL | 1.9 pM and 200 pg/mL | 1.7 pM and 179 pg/mL | 
